Laboratory results from patent publication US20160058886A1.

Experiments:
[1] = target: nucleolin at the surface of MDA-MB-231 and MDA-MB-435S breast cancer cells (UniProt P19338); assay: flow cytometry, rhodamine geometric mean fluorescence, MDA-MB-435S cells
[2] = target: nucleolin at the surface of MDA-MB-231 and MDA-MB-435S breast cancer cells (UniProt P19338); assay: flow cytometry, rhodamine geometric mean fluorescence, MDA-MB-231 cells

UniProt P19338, sequence (P19338 2-710 limits assumed): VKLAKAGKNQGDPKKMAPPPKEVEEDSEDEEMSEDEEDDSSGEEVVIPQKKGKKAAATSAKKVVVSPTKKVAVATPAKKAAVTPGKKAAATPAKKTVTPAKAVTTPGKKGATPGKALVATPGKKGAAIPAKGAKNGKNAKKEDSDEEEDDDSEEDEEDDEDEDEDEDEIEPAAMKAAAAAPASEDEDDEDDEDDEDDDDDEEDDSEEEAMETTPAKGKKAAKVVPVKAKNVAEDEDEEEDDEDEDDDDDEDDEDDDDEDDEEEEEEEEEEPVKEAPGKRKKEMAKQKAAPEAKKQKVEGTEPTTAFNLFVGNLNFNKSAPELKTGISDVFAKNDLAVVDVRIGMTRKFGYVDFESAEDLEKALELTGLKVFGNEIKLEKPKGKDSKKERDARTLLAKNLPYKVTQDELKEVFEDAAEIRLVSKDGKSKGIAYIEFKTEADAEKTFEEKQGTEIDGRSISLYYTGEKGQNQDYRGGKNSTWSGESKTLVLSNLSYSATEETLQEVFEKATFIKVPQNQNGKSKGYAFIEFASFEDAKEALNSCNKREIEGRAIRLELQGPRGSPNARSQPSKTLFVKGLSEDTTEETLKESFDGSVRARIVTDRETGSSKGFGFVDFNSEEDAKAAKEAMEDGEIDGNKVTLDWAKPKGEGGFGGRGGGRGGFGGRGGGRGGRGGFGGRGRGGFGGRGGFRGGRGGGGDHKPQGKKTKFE

**Q.** For “F3 peptide-targeted liposomes (F3 peptide, SEQ ID NO:1, coupled through DSPE-PEG2k to pH-sensitive liposomes)”, which higher cellular association of the CD44+/ALDHhi population against the CD44-/ALDH-/low population (MDA-MB-435S) [1] is on record?
**A.** The higher cellular association of the CD44+/ALDHhi population against the CD44-/ALDH-/low population (MDA-MB-435S) was 61%.

**Q.** And the higher cellular association of the CD44+/ALDHhi population against the CD44-/ALDH-/low population (MDA-MB-231) [2]?
**A.** Its higher cellular association of the CD44+/ALDHhi population against the CD44-/ALDH-/low population (MDA-MB-231) is 64%.
